Test results reported in patent EP1207201A1, “NOVEL G PROTEIN-COUPLED RECEPTOR PROTEIN AND DNA THEREOF” (Takeda Chemical Industries, Ltd., priority 1999, dated 2001).
Where no end group is shown, it is not given here.

Target: T1, AQ27 (Homo sapiens, UniProt Q96P65)
T1 construct: expressed in transfected cells; host or cells: CHO cells
T1 sequence (Q96P65 1-431): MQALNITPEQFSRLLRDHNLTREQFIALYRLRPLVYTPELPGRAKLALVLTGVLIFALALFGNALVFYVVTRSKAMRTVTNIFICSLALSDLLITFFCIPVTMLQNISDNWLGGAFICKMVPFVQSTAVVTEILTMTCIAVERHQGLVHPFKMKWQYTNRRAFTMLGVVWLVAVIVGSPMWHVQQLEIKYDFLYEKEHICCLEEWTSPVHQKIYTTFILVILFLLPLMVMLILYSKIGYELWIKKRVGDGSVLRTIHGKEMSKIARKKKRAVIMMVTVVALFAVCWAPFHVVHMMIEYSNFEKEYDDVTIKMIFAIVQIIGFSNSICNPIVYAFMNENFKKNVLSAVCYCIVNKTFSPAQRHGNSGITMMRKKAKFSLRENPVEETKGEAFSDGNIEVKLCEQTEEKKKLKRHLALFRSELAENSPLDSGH
Test: Cytosensor cell activation (increase of acidification rate) in AQ27-expressing CHO cells versus mock cells
Format: cell-based
Conditions: 10 µM, exposure 7 minutes and 2 seconds, AQ27-expressing CHO cells compared with mock cells
Method: The vertical axis represents a cycle of measurement. "•" denotes the reactivity of receptor-expressed CHO cells and "○" denotes the reactivity of mock cells.
The AQ27-expressing CHO cells and mock cells were inoculated in a capsule for Cytosensor at a concentration of 2.7 x 10^5 cells/capsule, respectively, incuvated overnight, and mounted onto Cytosensor(Molecular Device). After the acidification rare became stable, the cells were exposed to 10 µM Enkephalin-Arg-Phe amide (Bachem, H-2835) for 7 minutes and 2 seconds. The cell activation was measured using the increasing rate of the acidification rate as index.

## Met-Enkephalin-Arg-Phe amide (YGGFMRF-NH2) [peptide amide purchased from Bachem, H-2835]
  cell activation measured using the increasing rate of the acidification rate as index: specifically activates the AQ27-expressing CHO cells
